Target: the molecule itself
Experiment: native gel or EMSA

B1: bovine Coronin-1A (p3×Flag-bCoronin-1A) (natural protein)
chain: MSRQVVRSSKFRHVFGQPAKADQCYEDVRVSQNTWDSGFCAVNPKFVALICEASGGGAFLVLPLGKTGRVDKNVPMVCGHTAPVLDIAWCPHNDNVIASGSEDCSVMVWEIPDGGLTLPLREPVVTLEGHTKRVGIVAWHPTAQNVLLSAGCDNVILVWDVGTGVAVLTLGSDVHPDTIYSVDWSRDGALICTSCRDKRVRIIEPRKGTIVAEKDRPHEGTRPVRAVFVSDGKILTTGFSRMSERQVALWDTKHLEEPLSLQELDTSSGVLLPFFDPDTNIVYLCGKGDSSIRYFEITSEAPFLHYLSMFSSKESQRGMGYMPKRGLEVNKCEIARFYKLHERKCEPIAMTVPRKSDLFQEDLYPPTAGPDAALTAEEWLGGRDAGPLLISLKDGYVPPKSRELRVNRGLDTGRKRTTPEASGAPSSDAISRLEEEMRKLQATVQELQKRLDRLEETVQAK
stoichiometry N: 3
